A short description of this series: yeast display, Sf9 membrane polyspecificity reagent, FACS + sequencing; frameworks hold sequencing errors. The procedure, abridged:
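Nanobodies came from a synthetic yeast display library in Saccharomyces cerevisiae BJ5465, induced with galactose for 36–48 hours and stained for 1 hour at 4 °C with 10% biotinylated, detergent-solubilized Sf9 membrane reagent. Cells were enriched on streptavidin microbeads and then FACS-sorted, with low and high (top ~1%) gates set on anti-HA fluorescence for expression and streptavidin fluorescence for reagent binding. Each polyreactivity label reflects the gate a clone came from. Genes were amplified by colony PCR, sequenced by MiSeq 2 × 250 and filtered by CDR length.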
Take “QVHLVESGGGLVQAGGSLRLSCAASGRTFGWNVMGWYRQAPGKERELVAAISGSGGSTYYADSVKGRFTISRDNAKNTVYLQMMSLKPEDTAVYYCAKEYPWMPRSYEYWGQGTQVTVSS”: the “polyreactivity (PSR sort gate)” value is “low polyreactivity”. Next, “QVQLVESGGGLVQAGGSLRLSCAASGYISYVNPMGWYRQAPGKERELVAAISGRGGSTYYADSVKGRFTISRDNAKNTVYLQMYSLKPEDTAVYYCAADLYYSYYWGQGTQVTVSS”: “low polyreactivity”.

As to “QVQLVESGGGLVQAGGSLRLSCAASGFNFRLYAMGWYRQAPGKERELVATITQRGGRTYYADSVKGRFTISLDNAHNTVYLQMNSLKPEDTAVYYCAATWTVTTGTKFDYWGQGTQVTVAS”, the “polyreactivity (PSR sort gate)” value is “high polyreactivity”. In the case of “QVQLVESGGGLVQAGGSLRLSCAASGSTFDSYAMGWYRQAPGKEREFVAAISSCAGSSGRTSYADSVKGRFTISRDNATNTVYLQMNSLKPEDTAVYYCAKEYTLAKYREYDYWGQGTQVTVSS”, the “polyreactivity (PSR sort gate)” value is on record as “low polyreactivity”. Consider “HVQLVESGGGLVQAGGSLRLSCAASGPTFVTNAKGWYRQAPGKERELVAAISRSGGHTYYADSVKGRFTISRDIAKNTVYLQMNSLKPEDTAVYYCAKNRGPRTLYDYWGQGTQVTVSS”, for which the “polyreactivity (PSR sort gate)” value is given as “high polyreactivity”. With “QVQLVESGGGLVQAGGSLRLSCAASARTFPWYAMGLYRQAPGKERELVAAISWTGGSTYYADSVKGRFTISRDNAKHTVYLQMNSLKPEDTAVYYCAASPWYLKYEYWGQGTQVTVSS” the entry was “low polyreactivity”; with “QVQLVESGGGLVQAGGSLRLSCAASGYTFYSNAMGWYRQAPRKERELVASIRSRGRSTYYADSVKGRFTISRDNAKNTVDLQMNSLKPEDTAVYYCAALPNKPAVYAYDYWGQGTQVTVSS”, “low polyreactivity”. With “QVQLVESVGGLVQAGGILRLSCAASGYTFGGSAKGWYRPAPGKERELVAAITRRGGSTYYADSVKGRFTISRDNAKNTVYLQMNSLKPEDTAVYYCAKRSGSYSYPAVGGWGLGYWGHGTQVTVSS” the entry was “high polyreactivity”. Next, “QVQLVESGGGLVQAGGSLRLSCAASGRTFFRNAMGWYRQAPGKERELVAAISKRGGSTRYADSVKGRFTISRDNAKNTAYLQMNSLQPEDTAVYYCAADSRLEYSHATLYYCGQGTQVTVSS”: “high polyreactivity”; “QVQLVESGGGLVQAGGSLRLICAASGSTFGFNAMGWYRQAPGKERELVAAITFSGGTTYYADSVKGRFTISRDNAKNTVYVQMNSLKPDDTAVYYCNAEWWYHYTGPFAPWGEDYWGQGTQVTVSS”: “low polyreactivity”. With “QVQLVESGGGLVQAGGSLRLSCAASGRTFWVYAMGWYRQAPGKERELVASISWSVGSTYYADSVKGRFTISRDNAKNTVYLQMNSLKPEDTAVYYCNKTTLLTVEYDYWGQGSQVTVSS”, the “polyreactivity (PSR sort gate)” value is “low polyreactivity”. With “QVQLVESGGGLVQAGGSLRLSCAASGRTFYSNAMGWYRESPGKERELVAAISRSGGTTYYADSVKGRFTISRDHAKNTVSLLMNSLKPEDTAVYYCNTLRYGTTGKYDYWGQGTQVTVSS”, the “polyreactivity (PSR sort gate)” value is “high polyreactivity”. Regarding “QVQLVESGGGLVQAGGSLRLSSAPSGSTFTRYAMGWYRQAPGKERELVAAITSSGSRTYYADSVKGRFTISRDNAQNTVYLQKNSLKAEDTAVYYFAALGDTRYVGMDHWGQCTQVTVSS”, the “polyreactivity (PSR sort gate)” value is reported as “high polyreactivity”. With “QVQLVESGGGLVQAGGSLRLSCAASGRILRYKAMGWYRQAPGKDRELVAAMSSGGSTYADSVKGRFTISRDNAKNTVYLQMNSLKPEDTAVYYCAVQSTRRGPYSWPYGYWGQGTQVTVSS”, the “polyreactivity (PSR sort gate)” value is on record as “high polyreactivity”. With “QVQLVESGGGLVQAGGSLRLCCAASGSTFYFYTMGWYRQAPGKERELVAAIRDSGSSTDYADSVKGRFTISRDNAKNTVYLQMNSLKPEATAVYYCAAEYNFPEFPWGGEYDYWGQGTQVTVSS” the entry was “low polyreactivity”; with “QVQHVESGGGLVQAGGSLRLSCAASGSTFWRYAMGWYRQAPGKERELVAAISTSGGSTRYADSVKGRFTISRDNAKNTVYFQMKSLKPEDTEVYYCADRSVSSTSYGYWGQGTQVTVSS”, “high polyreactivity”.

“QVQLVESGGGLVQAGGSLRLSCAASGFTFAVYTMGRYIQGPGKERELVAAITASGGSTHYADSVKGRFTISRDNAKNTVYIQMNSLKPEDTAVYYCAARPRLYQYYYWGQGTQVTVSS”: the “polyreactivity (PSR sort gate)” value is given as “high polyreactivity”. Next, “QVQLVESGGGLVQAGGSRRLSCAASGSTVYTNAMGWSRQAPGKVRELVAAISGSGGSTYYADSVKGRFTISRDNPKNTVYLQMNSLKPEDTAVYYCAARSRNYDTRFDYWGQGTQVTVSS”: “low polyreactivity”. Turning to “QVQLVESGGGFVQAGGSLRLSCAASGSIFVTYAKGWYRQAPGKERDLVAAIKYSGGSTYYADSVKGRFTISRDYAKNTVYLQMNSLKPEDTAVYYCAADERVDQGWIRMDYWGQGTQVTVSS”, the “polyreactivity (PSR sort gate)” value is “low polyreactivity”.

For the sequence “QVQLVESGGGLVQAGGSLRLSGAASGSTFRYYVMGWYRQAPGKERELVAGISYRGGTTYYADSVKGRFTISRDNAKNTVYLQMISLKPEDTAVYYCNAETAAAQASFDRLYVLLDYWGQGTQVTVSS”, the “polyreactivity (PSR sort gate)” value is on record as “low polyreactivity”.

In the case of “QVQLVESVGGLVQAGGSLRLSGAASGRTFSSYALGWYRQAPGKVRELVAGIRLSTGSTYYADSVKGRFTISRDNAKNTVYLQMNSLQPEDTAVYYCNARGWAYSGAKSYYWGQGTQVTLSS”, the “polyreactivity (PSR sort gate)” value is “high polyreactivity”. Next, “QVQLVESGGGLVHAGGSLRLSCAASGYTFGNNAMGWYIQAPGKERELVASIRTNGGTTYYADSVKGRFTISRDNAKNTVYLQMNSLKPEDTAVYYCNAYRGYEYDYWGQGTQVTVSS”: “low polyreactivity”; “QVQLVESGGGLVQAGGSLRLSCAASGYIFGFYAMGWYRQAPGKERELVSRITYSGTSTYYADSVKGRFTISRDNAKNTVYLQMNSLKPEDTAVYYCATDFVRHAGWRRYDYWGQGTQVTVSS”: “low polyreactivity”. For the sequence “QVQLVESGGGLVQAGGILLLSCAASGRTFRVNTMGWYRQAPGTESELVAAISYSGASTYYADSVKGRFTISRDNAKNTVYLQMNSLKPEDTAVYYCAAAVGVALNDYWGQGTQVTVSS”, the “polyreactivity (PSR sort gate)” value is “high polyreactivity”. For “QVQLVESGGGLVQAGGTLRLSCAASGGTSRSYAMVWYRQAPGKERELVAAISWRGGRTYYADSVKGRFTISRDNAKNTVYLQMNSLKPEDTAVYYCAARQYSQETYDYWGQGSQVTVSS”, the “polyreactivity (PSR sort gate)” value is “high polyreactivity”. With “QVQLVESGGGLVQAGGSLRLSCAASGFTFAKYAMGWYRQAPGKERELVAAISSSGGRTYYADSVKGRFTISRDNAKNTVYLQMNSLKPEDTAVYYCAAAIRYRNYVYLYDYWGQGTQVTVSS” the entry was “high polyreactivity”; with “QVQLVESGGGLVQAGGSLRLSCAASGFTLFFYAMGWYRQAPGKEREFVASIRTSGGSTYYADSVKGRFTISRDNAKNTVYLQMNSLKPEDTAVYYCAARPLYGYGYWGQGTQVTVSS”, “high polyreactivity”. In the case of “QVQLVESGGGFVQAGGSLRLSCAASGSTFGPYAMGWSSQAPGKDRELVAGISSGGSTYYADSVKGRFTISRDNAKNTVYLQMNSLKPEDTAVYYCATRYLYRGYSYFAYDYWGQGTQVTVSS”, the “polyreactivity (PSR sort gate)” value is “low polyreactivity”. For “QVQVVESGGGLVKAGGSLRLSCAASGIIFVYYAMGWSRQAPGKERELVAAITSDGGRTYYADSVKGRFTISRDNAKNTVYLQMNSLKPEDTAVYYWAARTLYRGIKGYNYWGQGTQVTVSS”, the “polyreactivity (PSR sort gate)” value is reported as “high polyreactivity”. Next, “QVQLVESGGGLVQAGGSLSLSCAASGRITCGYAMGWYRQAPGKERELVAVINFNGGRTYYADSVKGRFTISRDNAKNTVYLQMNSLKPEDTAVYYCAADSGYEYDYWGQGTQVTVSS”: “low polyreactivity”; “QVQLVESGGGLVQAGGSLRLSCAASGSNFDYNTMGWYRQAPGKEREFVAAISSSGGGTSYADSVKGRFTISRDNAKNTVYLQMNSLKPEDTAVYYCAALIKLTPYQRQYWKYRAYYYGGQGTQVTVSS”: “high polyreactivity”; “QVQLVESGGGLVQAGGSLRLSCAASGRTFSWYVMGLYRQAPGKERELVAAINSNSGSTYYADSVKGRFTISRDNAKNTVYLQMNSLKPEDTAVYYCAARAKRYNVRFDYWGQGTQVTVSS”: “high polyreactivity”.

On to “QVQLVESGGGLVQAGGSLRLSCGASGRTIDYNGMGWYRQEPGKERELVSVISSSGGSTFYADSVKGRFTISRDNAKNTVYLQMNSLEPEDTAVYYCAALHVGHNYYNSGFYYWGQGTQVTVSS”, for which the “polyreactivity (PSR sort gate)” value is given as “low polyreactivity”.

As to “QVQLVESGGGLVQAGGSLRLSCAASGFIFSRNAMGWYRQAPGKERELVASITRRGGSKYYADSVKGRFTISRDYAKNTVYLQMNSLKPEDTAVYYCAADGYVRPPEMDYWGQGTQVTVSS”, the “polyreactivity (PSR sort gate)” value is reported as “high polyreactivity”. With “QVQLVESGGGLVQAGGSLRLSCAASGSILYTYAMGWYRQSPGKERELVAAISRGGGSTYYADSVKGRFTISRDNAKNSVYLQMNSLKPEDSAVYYCAARKLTRGSGRDDEYWGQGTQVTVSS” the entry was “high polyreactivity”. As for “QVQLVESGGGLVQAGGSLRLSCAASGSTFDFYAMGWYRQAPGKERELVAAISKSGGSTYYADSVKGRFTISRDTAKNTVYLQMNSLKPEDTAVYYCAAYVSYRMYWGQGTQVTVST”, the “polyreactivity (PSR sort gate)” value is reported as “high polyreactivity”.

In the case of “QVQLVESGGGLVQSGGSLRLSCAASGIIFCRYAMGWYRQAPGKERELVATITWRGGSTYDADSVKGRFTISRDNAKNTVYLQMNSLKPEDTAVYYCAADNRQSRSFRARAYWGQGNQVTVSS”, the “polyreactivity (PSR sort gate)” value is reported as “low polyreactivity”. Next, “QVQLQESGGGLVQAGGSLRLSCAASGSIFVSVTMGWYRQAPGKERELVASIGRGSTTNHADSVKGRFTISRDNAKNIVYLLMNSLKPEDTAVYSCAALESYGKYHGYWGQGTQVTVSS”: “low polyreactivity”.

Turning to “QVQLVESGGGLVQAGGSLRLSCAASGFIFTQNAMGWYRQAPGKERELVAVIRWNGGSTYYADSVKGRITISRDNAKNTVYLQMNSLKREDTAVYYCAAEFLWIVDYWGQGTQVTVSS”, the “polyreactivity (PSR sort gate)” value is recorded as “low polyreactivity”. With “QVQLVESGGGLVLAGGSLRLSCAASGFTFEKSVMGWYRQAPGNEREFVAAITRSGGRTYYADSVKGRFTISRDNAKNTVYLQMNSLKPEDTAVYFCAAAFSRSDTGGGSWGQGTQVTVSS” the entry was “high polyreactivity”. With “QVQLVESGGGLVQAGGSLRLSCAASGSTFYLYDMGWYRQAPGKERELVATITSGTSTTYADSVKGRFTISRDNAKNTVYLQMISLKPEDTAVYYCNVYKPPTRGGVLEYGYWGQGTQVTVSS” the entry was “low polyreactivity”.

The values are drawn from the nanobody polyreactivity screen of Harvey et al. (2022).
